Laboratory results as given in patent US6906033.

Target: Plasmin
Test: enzyme inhibition

Ki | Substance
0.23 nM | Aprotinin
0.17 nM | Aprotinin R15, S42
